In the nanobody polyreactivity screen of Harvey et al. (2022):

Assay: yeast display, Sf9 membrane polyspecificity reagent, FACS + sequencing; frameworks hold sequencing errors
Procedure, shortened: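 After 36–48 hours of galactose induction, yeast (Saccharomyces cerevisiae BJ5465) displaying a synthetic nanobody library were stained at 4 °C for 1 hour with 10% biotinylated, detergent-solubilized Sf9 membrane reagent. Streptavidin microbeads enriched the stained cells before FACS sorting into low and high (top ~1%) gates on anti-HA and streptavidin fluorescence. Each clone's polyreactivity label reflects its gate of origin.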

Sequence	polyreactivity (PSR sort gate)
QVQLVESGGGLVQAGGSLRLSCAASGSIFYFNAMGWYRQAPGKERELVAAINISGSSTSYADSVKGRFTISRDNAKNTVYLQMNSLKPEDTAVYYCYAGPYTYLHWNQAISRYYYWGQGTQVTVSS	low polyreactivity
QVQLVESGGGLVQAGGSLRLSCAASGSIFYFNAMGWYRQAPGKERELVAAITYSGGSTYYADSVKGRFTISRDNAKNTFYLQMNILKPEDTAVYYCAAERRTFPLRIFDYWGQGTQVTVSS	low polyreactivity
QVQLVESGGGLVQAGGSLRLSCAASGSIFYFNGMGWYRQAPGKERELVAAITWGDGSTYYADSVKGRFTISRDNAKNTVYLQMNSLKREDNAVYYCAAVLLIFKYVPRYDYWGQGTQVTVSS	low polyreactivity
QVQLVESGGGLVQAGGSLRLSCAASGSIFYGHAMGWYRQAPGKERELVATISWSTGSTYYADSVKGRFTISRDHAKNTVYLQMNSLKPEDTAVYYCAKEYFSKQWRGGYWGQGTQVTVSS	high polyreactivity
QVQLVESGGGLVQAGGSLRLSCAASGSIFYGNTMGWYRQAPGKERELVAAIRSVGRTYYADSVKGRFTISRDNAKNTVYLQMNSLKPEDTAVYYCAADPRSYFTSEYWGQGTQVTVSS	high polyreactivity
QVQLVESGGGLVQAGGSLRLSCAASGSIFYGYAMAWYRQAPGKERELVAAITRSGGSTYYADSVKGRFTISRDNAKNTVYLQMNSLKPEDTAVYYCAAVSRSRRMDYWGQGTQVTVSS	high polyreactivity
QVQLVESGGGLVQAGGSLRLSCAASGSIFYGYAMGWYRQAPGKERELVAAITSSGTRTYYADSVKGRFTISRDNAKNTVYLQMNSLKPEDTAVYYCAADGPGYQYDYWGQGTQVTVSS	high polyreactivity
QVQLVESGGGLVQAGGSLRLSCAASGSIFYGYAMGWYRQAPGKERELVAAITTSGGSTYYADSVKGRFTISRDNAKYTVYLQMNSLKPEDTAVYYCAAVTYWPGGYYWGQGTQVTVSS	high polyreactivity
QVQLVESGGGLVQAGGSLRLSCAASGSIFYGYDMGWYRQAPGKERELVAAITIGGGTTYYADSVKGRFTISRDNAKNTVYLQMNSLKPEDTAVYYCAAEFYYTIYSNKVGYDYWGQGTQVSVSS	high polyreactivity
QVQLVESGGGLVQAGGSLRLSCAASGSIFYGYVMGWYRQAPGKERELVAAISRSGGRTYYADSVKGRFTISRDNAKNTVYLQMNSQKPEDTAVYDCNARQAGTPYKYAYYGRYYWGQGTQVTVSS	high polyreactivity
QVQLVESGGGLVQAGGSLRLSCAASGSIFYHYVMGWYRQAPGKDRELVAGISWSGVSTYYADSVKGLFTISRDNAKNTVYLQMNSLKPEDTAVYYCAAVYRQSRLHTFGYWGQGTQVTVSS	high polyreactivity
QVQLVESGGGLVQAGGSLRLSCAASGSIFYIYAMGWSRQAPGKERELVASITFSGDITYYADSVKGRFTISRDNAKNTVYLQMNSLKPEDTAVYYCNTRTPYWFKSDYWGQGTQVTVSS	low polyreactivity
QVQLVESGGGLVQAGGSLRLSCAASGSIFYIYAMGWYRQAPGKERELVAAINWSGGDTYYADSVKGRFTISRDNAKNTVYLQMNSLKPEDTAVYYCAALLDSEYEYWGQGTQVTVSS	high polyreactivity
QVQLVESGGGLVQAGGSLRLSCAASGSIFYIYAMGWYRQAPGKERELVAAISWSGSSTYYADSVKGRFTISRDNAKHTVYLQMNSLKPEDTAVYYCAADTGYGVRYYYWGQGTQVTVSS	high polyreactivity
QVQLVESGGGLVQAGGSLRLSCAASGSIFYIYAMGWYRQAPGKERELVAAITSSVGRTYYADSVKGRFTISRDNAKNTFYLQMNSLKAEDTAVYYCAADYYYSQVAYVYWGHGTQVTVSS	high polyreactivity
QVQLVESGGGLVQAGGSLRLSCAASGSIFYKYAMGWYRQAPGKERELVAAISGSGGRTYYADSVKGRFTISRDNAKNTVYLQMNSLKPEDTAVYYCAAAKRTWRSDYWGQGTQVTVSS	high polyreactivity

Sequence	polyreactivity (PSR sort gate)
QVQLVESGGGLVQAGGSLRLSCAASGSIFYKYTMGWYRQAPGKERELVAAITRSGGSTYYADSVKGRFTISRDNAKNTVYLQMNSLKPEDTAVYYCAAERASFRYQDYYIYDYWGQGTQVTVSS	high polyreactivity
QVQLVESGGGLVQAGGSLRLSCAASGSIFYLNAMGWYRQAPGKERDLVAAIRWSGGSTRYADSVKGRCTISRDNAKNTVYLQMNSLKPEDTAVYYCAKYNPVLVYHWWYYYWGQGTQVTVSS	high polyreactivity
QVQLVESGGGLVQAGGSLRLSCAASGSIFYLNARGWYRQAPGKERELVASINRGGITYYADSVKGRFTISRDNAKNTVYLQMNSLKPEDTAVYYCAARSPYVSYRSNYYYWGQGTQVTVSS	high polyreactivity
QVQLVESGGGLVQAGGSLRLSCAASGSIFYLYAMGWYRQAPGKERELVAAISESGSTTYYADSVKGRFTISRDNAKNTVYLQMNSLKPEDTAVYYCARLGTYTVVTYDYWGQGTQVTVSS	low polyreactivity
QVQLVESGGGLVQAGGSLRLSCAASGSIFYLYAMGWYRQAPGKERELVAAITSIGGSTYADSVKGRFTISRDNAKNTVYLQMYSLKPEDTAVYYCNTDEYPLTVQVQYYYWGQGTQVTVSS	low polyreactivity
QVQLVESGGGLVQAGGSLRLSCAASGSIFYNAMGWYRQAPGKERELVAAISQRGTRTYYADSVKGRFTISRDNAKKTVYLQMNSLKPEDTAVYYCNRGGWRQYDSWGQGTQVTVSS	high polyreactivity
QVQLVESGGGLVQAGGSLRLSCAASGSIFYNNAMGWYRQAPGKERELVAAITIGGSTNYADSVKGRFTISRDNAKNTVYLQMNSLNPEDTAVYYCAAAVLYWVGYGYWGQGTQVTVSS	low polyreactivity
QVQLVESGGGLVQAGGSLRLSCAASGSIFYNYAMGWYRQAPGKEREFVAGITRSGGTTSYADSVKGRFTISRDNAKNTVYLQMNSLKPEDTAVYYCAAVVYLQAWYGYWDYYYWGQGTQVTVSS	high polyreactivity
QVQLVESGGGLVQAGGSLRLSCAASGSIFYPNAMGWYRQAPGKEREFVAAISKSGGNTYYADSVKGRFTISRDNAKNTVYLQMNSLKPEDTAVYYCAARTQAFSRKGYGYWGQGTQVTVSS	high polyreactivity
QVQLVESGGGLVQAGGSLRLSCAASGSIFYPYAMGWYRQAPGKERELLASITINDGSTYYADSVKGRFTISRDNAKNTVYLQMNSLKPEDTAVYYCNVEPVPGFGSEYEYWGQGTQVTVSS	low polyreactivity
QVQLVESGGGLVQAGGSLRLSCAASGSIFYPYAMGWYRQAPGKERELVAGITYRAGSTYYADSVKGRFTISRDNAKNTVYLQMNSLKPEDTAVYYCAASQSYAFDWGQGTQVTVSS	high polyreactivity
QVQLVESGGGLVQAGGSLRLSCAASGSIFYPYAMGWYRQAPGKERELVATISSGGRTNYADSVKGRFTISRDNAKNTVYLQMNSLKPEDTAVYYCAKDRYPTSWWFRRRDYWGQGTQVTVSS	high polyreactivity
QVQLVESGGGLVQAGGSLRLSCAASGSIFYPYAMGWYRQAPGKERQLVAAISYSGGSTYYADSVKGRFTISRDNAKNTVYLQMNSLKPEDTAVYYCAADVTAGDGRNDYWGIGTQVTVSS	low polyreactivity
QVQLVESGGGLVQAGGSLRLSCAASGSIFYPYTMGWYRQAPGKEREFVAAITGGGGRTYYADSVKGRFTISRDNAKNTVYLQMNSLKPEDTAVYYCATDTYDVNVWELGMDYWGQGTQVTVSS	low polyreactivity
QVQLVESGGGLVQAGGSLRLSCAASGSIFYPYTMGWYRQAPGKETEFVARITWSGGSTYYADSVKGRFTISRDNAKNTVYLQMNSLKPEDSAVYYCARVAWSESDWQKMDYWGQGTQVTVSS	high polyreactivity
QVQLVESGGGLVQAGGSLRLSCAASGSIFYQNALGWYRQAPGKETELVAAMSRSGGSTYYADSVKGRFTISRDNAKNTVYLQMNSLKPEDTAVYYCAARISRQRSYSRDYWGQGTQVTVSS	high polyreactivity
